Measured values taken from patent US20030078373A1 (published 2003).

T1: rhodanese (UniProt P00586 2-297)
T1 sequence: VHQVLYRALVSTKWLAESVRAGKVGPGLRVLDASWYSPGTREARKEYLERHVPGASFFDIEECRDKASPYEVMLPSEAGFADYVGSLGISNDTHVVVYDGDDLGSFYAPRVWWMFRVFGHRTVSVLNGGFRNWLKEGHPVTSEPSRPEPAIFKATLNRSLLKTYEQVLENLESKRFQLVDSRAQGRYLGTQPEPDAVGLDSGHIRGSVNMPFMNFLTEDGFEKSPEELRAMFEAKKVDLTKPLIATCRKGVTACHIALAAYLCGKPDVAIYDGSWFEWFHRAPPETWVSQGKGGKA


What was measured:
rhodanese [1] = target: T1, rhodanese; test: cell-based or functional assay
cyclophilin A = cyclophilin A (UniProt P62937 1-165); test: cell-based or functional assay
rhodanese [2] = target: T1, rhodanese; test: estimated from the molar ratio giving maximal refolding yield of rhodanese
barnase [3] = target: T2, barnase (UniProt P00648 48-157); test: derived from the change from EX2 to EX1 amide proton exchange of barnase (NMR)
T2 sequence (P00648 48-157): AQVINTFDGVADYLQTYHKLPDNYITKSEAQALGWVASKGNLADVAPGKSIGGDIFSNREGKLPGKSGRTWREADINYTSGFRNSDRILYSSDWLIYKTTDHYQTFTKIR

barnase [4] = target: T2, barnase; test: derived from amide proton exchange of barnase (NMR); reference value for intact GroEL from the literature

Binder | rhodanese refolding activity (rhodanese [1]) [%] | rhodanese refolding activity above background refolding (rhodanese [1]) [%] | rhodanese refolding activity at about 25 mins (rhodanese [1]) [%] | refolding of inactivated cyclophilin A (cyclophilin A) [%] | rhodanese refolding activity after 25 mins (rhodanese [1]) [%] | Kd (rhodanese [2]) [nM] | koff (barnase [3]) [s⁻¹] | fold of the dissociation rate constant over that from intact GroEL (barnase [4]) [fold]
sht-GroEL 191-345 (other) EGMQFDRGYLSPYFINKPETGAVELESPFILLADKKISNIREMLPVLEAVAKAGKPLLIIAEDVEGEALATLVVNTMRGIVKVAAVKAPGFGDRRKAMLQDIATLTGGTVISEEIGMELEKATLEDLGQAKRVVINKDTTTIIDGVGEEAAIQGR | ~42.5 | ~37.5 | ~50 | 100 | – | – | – | –
sht-GroEL 191-376 (other) EGMQFDRGYLSPYFINKPETGAVELESPFILLADKKISNIREMLPVLEAVAKAGKPLLIIAEDVEGEALATLVVNTMRGIVKVAAVKAPGFGDRRKAMLQDIATLTGGTVISEEIGMELEKATLEDLGQAKRVVINKDTTTIIDGVGEEAAIQGRVAQIRQQIEEATSDYDREKLQERVAKLAGGV | – | – | – | 100 | ~40 | > 100 | ~2 | < 5
